Each block holds one substance with its values, some of them ahead of it.
Key:
Format in all cases: physicochemical
[1] = Anderson Cascade Impactor testing of Albuterol sulfate aerosol from the droplet delivery device (Example B); conditions: Albuterol 0.5%, 28.3 lpm, 10 actuations
[2] = Enbrel stability after aerosol generation, size exclusion chromatography (SEC)
From the text: Size Exclusion Chromatography (SEC): Alternately, to determine the stability of active agent after droplet generation, the generated stream of droplets including the active agent may be collected and […] may be employed to monitor for any changes in large molecule aggregation and protein fragment content. Soluble protein aggregates and protein fragment content may be calculated by comparing respective peak area under the SEC-HPLC curve of dispensed protein solutions with controls (solutions remaining in the device reservoir). Drug solutions for testing include Enbrel, (ENBREL® single-use prefilled syringes in 25 mg (0.51 mL of a 50 mg/mL solution of etanercept), and insulin, (Humalog, 200 units/ml, 3 ml […] is performed with a YarraTM 3 um SEC-2000 LC column 300×7.8 mm, SecurityGuard cartridge kit and SecurityGuard cartridges GFC-2000, 4×3 mm ID. Fifty microliters of Enbrel from the syringe (ENBREL® single-use prefilled syringes in 25 mg/0.51 mL of a 50 mg/mL solution of etanercept) is diluted (4:1) (4 parts, 200 mcl of the mobile phase buffer solution to 1 part, 50 mcl Enbrel from syringe). Fifty microliter of the diluted Enbrel is injected and separation was performed at a flow rate of 1.0 ml/min. The mobile phase buffer system included a PHOS. BUFF. SALINE. […] UV detection is performed at 280 nm. […] An ampule/cartridge is filled with either 0.20 ml of Enbrel® (50 mg/ml) diluted 4:1 (10 mg/ml)(4 parts (200 mcl) of PBS and 0.025% NaN3 and 1 part (50 mcl of Enbrel solution from the syringe). After 20 actuations and aerosolization, about 150 mcl of the aerosolized Enbrel solution is recovered and collected in the polypropylene tube located below the ejector mechanism. The control consists of the diluted Enbrel solution, 50 mcl of which is injected into the SEC column for analysis.

[3] = Gel electrophoresis of active agent after droplet generation
From the text: Gel Electrophoresis: To determine the stability of active agent after droplet generation, the generated stream of droplets including the active agent is collected and the molecular weight of the active agent is verified using gel electrophoresis.

[4] = Insulin stability after aerosol generation, size exclusion chromatography (SEC)
From the text: Size Exclusion Chromatography (SEC): Alternately, to determine the stability of active agent after droplet generation, the generated stream of droplets including the active agent may be collected and SEC-HPLIC may be employed to monitor for any changes in large molecule aggregation and protein fragment content. Soluble protein aggregates and protein fragment content may be calculated by comparing respective peak area under the SEC-HPLC curve of dispensed protein solutions with controls (solutions remaining in the device reservoir).
Drug solutions for testing include Enbrel, (ENBREL® single-use prefilled syringes in 25 mg (0.51 mL of a 50 mg/mL solution of etanercept), and insulin, (Humalog, 200 units/ml, 3 ml kwikpens)
To calculate and compare effects of droplet generation through an ejector mechanism of the disclosure, the total area under the curve of the UV signal at 280 nm versus elution time for controls is compared with the aerosolized samples, which is set to 100%.
Aerosol collection and SEC is performed in a similar fashion as for the Enbrel analysis and aerosol collection.
Fifty microliters of the collected aerosol spray is injected onto the SEC column for analysis, while 50 mcl of the Kwikpen insulin solution is injected onto the SEC column for control samples.

[5] = average of Aerosolized S1 and S2
[6] = control (diluted Enbrel 10 mg/ml, not aerosolized), SEC UV 280 nm

Fine Particles (<0.4 um) ([1]; Anderson Cascade): 31.0 µg | Fine Particule Fraction (<0.4 um) ([1]; Anderson Cascade): 3.5% | droplets of an average diameter of less than about 4 μm ([1]; Anderson Cascade): over 70% | Cum. % < ([1]; FILTER): 0.00% | Cum. % > ([1]; FILTER): 100.00%
Substance: Albuterol sulfate

Substance: etanercept [Enbrel]
Peak 4 area, Avg. [2, 5]: 0.3545 | Peak 5 area, Avg. [2, 5]: 4.2755 | Peak Area %, Peak 4 [2, 6]: 0% | Peak Area %, Peak 5 [2, 6]: 0% | dose that leads to formation of molecular fragments ([2]; fragments with elution times of 13 and 25 minutes): 4.6% | change in the electrophoretic mobility (molecular weight) of post-aerosol active agent versus control [3]: negligible change in the electrophoretic mobility

Substance: bevacizumab
change in the electrophoretic mobility (molecular weight) of post-aerosol active agent versus control [3]: negligible change in the electrophoretic mobility

Substance: Insulin: insulin, Humalog, 200 units/ml, 3 ml kwikpens
ejected dose that is structurally unchanged ([4]; aerosolized with test device): 97.5% | Peak 3 area, Avg. [4, 5]: 2.4905 | Peak Area %, Peak 3 ([4]; control (Kwikpen insulin solution 200 U/ml, not aerosolized), SEC): 0% | ejected dose that forms a fragment ([4]; fragment which elutes at ~25 minutes): 2.5%

Substance: adalimumab
change in the electrophoretic mobility (molecular weight) of post-aerosol active agent versus control [3]: negligible change in the electrophoretic mobility
